Measurements: paper PMC10397247

Key:
4H2697-bA = target: T1, 4H2697-bA; assay: two-hybrid library CCNG1;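 also: natural log of median RNA to DNA barcode read ratio; higher means stronger binding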
T1 chain: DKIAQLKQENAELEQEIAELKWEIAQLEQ

4H338-bA = target: T2, 4H338-bA; assay: two-hybrid library CCNG1;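 also: natural log of median RNA to DNA barcode read ratio; higher means stronger binding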
T2 chain: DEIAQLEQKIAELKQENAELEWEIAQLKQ

4H72-bA = target: T3, 4H72-bA; assay: two-hybrid library CCNG1;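 also: natural log of median RNA to DNA barcode read ratio; higher means stronger binding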
T3 chain: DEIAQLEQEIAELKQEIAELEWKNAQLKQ

4H967-bA = target: T4, 4H967-bA; assay: two-hybrid library CCNG1;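 also: natural log of median RNA to DNA barcode read ratio; higher means stronger binding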
T4 chain: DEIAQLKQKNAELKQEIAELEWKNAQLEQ

4H3189-bA = target: T5, 4H3189-bA; assay: two-hybrid library CCNG1;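 also: natural log of median RNA to DNA barcode read ratio; higher means stronger binding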
T5 chain: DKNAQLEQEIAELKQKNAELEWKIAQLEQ

4H568-bA = target: T6, 4H568-bA; assay: two-hybrid library CCNG1;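 also: natural log of median RNA to DNA barcode read ratio; higher means stronger binding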
T6 chain: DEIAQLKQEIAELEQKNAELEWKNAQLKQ

4H462-bA = target: T7, 4H462-bA; assay: two-hybrid library CCNG1
T7 chain: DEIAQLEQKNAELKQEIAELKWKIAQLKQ

4H331-bA = target: T8, 4H331-bA; assay: two-hybrid library CCNG1
T8 chain: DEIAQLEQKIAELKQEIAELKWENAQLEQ

4H918-bA = target: T9, 4H918-bA; assay: two-hybrid library CCNG1
T9 chain: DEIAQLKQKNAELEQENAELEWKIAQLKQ

4H607-bA = target: T10, 4H607-bA; assay: two-hybrid library CCNG1
T10 chain: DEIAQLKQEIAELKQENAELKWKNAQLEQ

4H3354-bA = target: T11, 4H3354-bA; assay: two-hybrid library CCNG1
T11 chain: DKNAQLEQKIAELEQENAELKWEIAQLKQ

4H2576-bA = target: T12, 4H2576-bA; assay: two-hybrid library CCNG1
T12 chain: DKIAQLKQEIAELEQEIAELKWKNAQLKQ

4H797-bA = target: T13, 4H797-bA; assay: two-hybrid library CCNG1
T13 chain: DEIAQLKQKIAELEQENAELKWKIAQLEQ

4H2667-bA = target: T14, 4H2667-bA; assay: two-hybrid library CCNG1
T14 chain: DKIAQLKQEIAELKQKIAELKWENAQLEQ

4H908-bA = target: T15, 4H908-bA; assay: two-hybrid library CCNG1
T15 chain: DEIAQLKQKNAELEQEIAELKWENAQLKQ

4H2610-bA = target: T16, 4H2610-bA; assay: two-hybrid library CCNG1
T16 chain: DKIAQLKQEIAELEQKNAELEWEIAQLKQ

4H3057-bA = target: T17, 4H3057-bA; assay: two-hybrid library CCNG1
T17 chain: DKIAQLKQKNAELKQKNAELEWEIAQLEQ

4H3606-bA = target: T18, 4H3606-bA; assay: two-hybrid library CCNG1
T18 chain: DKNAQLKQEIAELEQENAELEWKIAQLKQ

4H2717-bA = target: T19, 4H2717-bA; assay: two-hybrid library CCNG1
T19 chain: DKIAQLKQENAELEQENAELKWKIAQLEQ

4H717-bA = target: T20, 4H717-bA; assay: two-hybrid library CCNG1
T20 chain: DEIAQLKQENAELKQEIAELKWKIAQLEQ

4H953-bA = target: T21, 4H953-bA; assay: two-hybrid library CCNG1
T21 chain: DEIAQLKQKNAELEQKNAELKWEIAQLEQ

4H883-bA = target: T22, 4H883-bA; assay: two-hybrid library CCNG1
T22 chain: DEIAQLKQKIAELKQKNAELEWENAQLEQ

4H370-bA = target: T23, 4H370-bA; assay: two-hybrid library CCNG1
T23 chain: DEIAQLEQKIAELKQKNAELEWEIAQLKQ

4H4001-bA = target: T24, 4H4001-bA; assay: two-hybrid library CCNG1
T24 chain: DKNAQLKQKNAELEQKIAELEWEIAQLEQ

4H3782-bA = target: T25, 4H3782-bA; assay: two-hybrid library CCNG1
T25 chain: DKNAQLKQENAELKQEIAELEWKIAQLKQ

4H754-bA = target: T26, 4H754-bA; assay: two-hybrid library CCNG1
T26 chain: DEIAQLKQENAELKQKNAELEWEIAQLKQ

4H3112-bA = target: T27, 4H3112-bA; assay: two-hybrid library CCNG1
T27 chain: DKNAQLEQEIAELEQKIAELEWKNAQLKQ

4H2618-bA = target: T28, 4H2618-bA; assay: two-hybrid library CCNG1
T28 chain: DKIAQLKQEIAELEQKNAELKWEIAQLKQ

4H3843-bA = target: T29, 4H3843-bA; assay: two-hybrid library CCNG1
T29 chain: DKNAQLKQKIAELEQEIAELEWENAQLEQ

4H2760-bN = target: T30, 4H2760-bN; assay: two-hybrid library CCNG1
T30 chain: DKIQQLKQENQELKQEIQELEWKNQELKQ

4H3427-bA = target: T31, 4H3427-bA; assay: two-hybrid library CCNG1
T31 chain: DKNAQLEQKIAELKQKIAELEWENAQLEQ

4H3855-bA = target: T32, 4H3855-bA; assay: two-hybrid library CCNG1
T32 chain: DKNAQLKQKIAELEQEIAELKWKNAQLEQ

4H454-bA = target: T33, 4H454-bA; assay: two-hybrid library CCNG1
T33 chain: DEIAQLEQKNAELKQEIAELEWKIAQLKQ

4H687-bA = target: T34, 4H687-bA; assay: two-hybrid library CCNG1
T34 chain: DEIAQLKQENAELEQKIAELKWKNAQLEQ

4H2729-bA = target: T35, 4H2729-bA; assay: two-hybrid library CCNG1
T35 chain: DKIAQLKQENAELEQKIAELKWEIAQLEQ

4H3185-bA = target: T36, 4H3185-bA; assay: two-hybrid library CCNG1
T36 chain: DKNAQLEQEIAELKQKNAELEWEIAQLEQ

4H465-AA = target: T37, 4H465-AA; assay: two-hybrid library CCmax; details: mean of both orientations
T37 chain: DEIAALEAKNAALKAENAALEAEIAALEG

4H3705-AA = target: T38, 4H3705-AA; assay: two-hybrid library CCmax; details: mean of both orientations
T38 chain: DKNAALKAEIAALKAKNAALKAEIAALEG

4H58-AA = target: T39, 4H58-AA; assay: two-hybrid library CCmax; details: mean of both orientations
T39 chain: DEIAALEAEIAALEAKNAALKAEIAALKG

4H3365-AA = target: T40, 4H3365-AA; assay: two-hybrid library CCmax; details: mean of both orientations
T40 chain: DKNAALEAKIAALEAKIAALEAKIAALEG

4H3651-AA = target: T41, 4H3651-AA; assay: two-hybrid library CCmax; details: mean of both orientations
T41 chain: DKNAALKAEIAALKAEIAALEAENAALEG

4H2721-AA = target: T42, 4H2721-AA; assay: two-hybrid library CCmax
T42 chain: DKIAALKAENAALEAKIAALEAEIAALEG

4H3782-AA = target: T43, 4H3782-AA; assay: two-hybrid library CCmax; details: mean of both orientations
T43 chain: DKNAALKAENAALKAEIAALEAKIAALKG

4H895-AA = target: T44, 4H895-AA; assay: two-hybrid library CCmax; details: mean of both orientations
T44 chain: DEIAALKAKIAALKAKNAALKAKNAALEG

4H535-AA = target: T45, 4H535-AA; assay: two-hybrid library CCmax; details: mean of both orientations
T45 chain: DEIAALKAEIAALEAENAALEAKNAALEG

4H_GCN4 = assay: two-hybrid library CCmax
4H_APH = target: T46, 4H_APH; assay: two-hybrid library CCmax; details: mean of both orientations
T46 chain: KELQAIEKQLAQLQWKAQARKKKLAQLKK

4H486-AA = target: T47, 4H486-AA; assay: two-hybrid library CCmax; details: mean of both orientations
T47 chain: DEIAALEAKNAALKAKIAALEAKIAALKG

GCN2_T = assay: two-hybrid library CCmax; details: mean of both orientations
4H2750-AA = target: T48, 4H2750-AA; assay: two-hybrid library CCmax; details: mean of both orientations
T48 chain: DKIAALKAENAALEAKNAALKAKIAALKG

4H355-AA = target: T49, 4H355-AA; assay: two-hybrid library CCmax; details: mean of both orientations
T49 chain: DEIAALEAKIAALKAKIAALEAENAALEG

4H_BCR = target: T50, 4H_BCR; assay: two-hybrid library CCmax; details: mean of both orientations
T50 chain: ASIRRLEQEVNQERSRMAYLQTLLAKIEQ

4H3020-AA = target: T51, 4H3020-AA; assay: two-hybrid library CCmax; details: mean of both orientations
T51 chain: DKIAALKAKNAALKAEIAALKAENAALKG

4H2898-AA = target: T52, 4H2898-AA; assay: two-hybrid library CCmax; details: mean of both orientations
T52 chain: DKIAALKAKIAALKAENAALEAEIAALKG

Chain of 4H_GCN4 (chain, as listed by the source): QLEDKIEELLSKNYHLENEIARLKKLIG

For DKIAQLKQEIAELEQEIAELKWKNAQLKQ [4H2576-bA], the interaction score (4H2697-bA) was 0.599, the interaction score (4H338-bA) was 0.28 and the interaction score (4H72-bA) was 1.49. For the same binder, the interaction score (4H967-bA) was 1.25, the interaction score (4H3189-bA) was -0.652 and the interaction score (4H568-bA) was -0.232. It also gave an interaction score (4H462-bA) of 0.799, an interaction score (4H331-bA) of 1.26 and an interaction score (4H918-bA) of -0.646. For the same binder, the interaction score (4H607-bA) was -0.213, the interaction score (4H3354-bA) was -0.69 and the interaction score (4H2576-bA) was 1.66. It also gave an interaction score (4H797-bA) of -0.381, an interaction score (4H2667-bA) of 0.89 and an interaction score (4H908-bA) of 0.163. The interaction score (4H2610-bA) was -0.116, the interaction score (4H3057-bA) was 1.74 and the interaction score (4H3606-bA) was -0.614. It also gave an interaction score (4H2717-bA) of -1.39, an interaction score (4H717-bA) of -1.01 and an interaction score (4H953-bA) of 0.283. For the same binder, the interaction score (4H883-bA) was 0.662, the interaction score (4H370-bA) was 1.32 and the interaction score (4H4001-bA) was 1.77. It also gave an interaction score (4H3782-bA) of 0.345, an interaction score (4H754-bA) of -0.459 and an interaction score (4H3112-bA) of 0.265. It also gave an interaction score (4H2618-bA) of -0.0165, an interaction score (4H3843-bA) of 2.1 and an interaction score (4H2760-bN) of 0.547. It also gave an interaction score (4H3427-bA) of 1.64, an interaction score (4H3855-bA) of 0.525 and an interaction score (4H454-bA) of 0.611. For the same binder, the interaction score (4H687-bA) was -0.678, the interaction score (4H2729-bA) was 1.22 and the interaction score (4H3185-bA) was -1.6.

DKIAALKAENAALEAKIAALEAEIAALEG [4H2721-AA] showed an interaction score (4H465-AA) of -0.696, an interaction score (4H3705-AA) of 1.59 and an interaction score (4H58-AA) of 0.0667. It also gave an interaction score (4H3365-AA) of -1.58, an interaction score (4H3651-AA) of -1.51 and an interaction score (4H2721-AA) of 0.879. For the same binder, the interaction score (4H3782-AA) was 1.73, the interaction score (4H895-AA) was -1.62 and the interaction score (4H535-AA) was -1.55. The interaction score (4H_GCN4) was -1.31, the interaction score (4H_APH) was -2.01 and the interaction score (4H486-AA) was 2.11. It also gave an interaction score (GCN2_T) of -0.835, an interaction score (4H2750-AA) of 0.408 and an interaction score (4H355-AA) of -0.56. The interaction score (4H_BCR) was -1.38, the interaction score (4H3020-AA) was -1.05 and the interaction score (4H2898-AA) was 0.892.
